This is an account of results in publication PMC9714371, “Haemophilus influenzae Protein D antibody suppression in a multi‐component vaccine formulation” (FEBS Open Bio, 2022).

Values joined by “and” are separate entries in the source; they are usually repeats but may differ in a detail not shown here. Identical values can stand only once.

This data set deals with the molecule itself. Briefly: native MS; nano-electrospray native MS with ion mobility (Waters Synapt G2); His-tagged proteins in 200 mM ammonium acetate pH 6.8, 5 μM; PD alone, OMP26 alone, 1:1 mixture.

B1: His‐tagged Protein D (non‐lipidated, N‐terminal signal sequence removed) (natural protein)
chain: CSSHSSNMANTQMKSDKIIIAHRGASGYLPEHTLESKALAFAQHSDYLEQDLAMTKDGRLVVIHDHFLDGLTDVAKKFPYRHRKDGRYYVIDFTLKEIQSLEMTENFETKDGKQAQVYPNRFPLWKSHFRIHTFEDEIEFIQGLEKSTGKKVGIYPEIKAPWFHHQNGKDIATETLKVLKKYGYDKKTDMVYLQTFDFNELKRIKTELLPQMGMDLKLVQLIAYTDWKETQEKDPKGYWVNYNYDWMFKPGAMAEVVKYADGVGPGWYMLVNKEESKPDNIVYTPLVKELAQYNVEVHPYTVRKDALPEFFTDVNQMYDALLNKSGATGVFTDFPDTGVEFLKGIK
notes: Gene bought from GenScript, in pET21a; also called PD; His‐tagged PD; source: E. coli BL‐21*, IPTG induced; not shown: His6, N-terminal, kept
What is called stoichiometry N is the number of molecules, sites or subunits per partner or assembly. For the protein B1, the “stoichiometry N” value was 2 and 4.

B2: His‐tagged outer membrane protein 26 (OMP26) (natural protein)
chain: EEKIAFINAGYIFQHHPDRQAVADKLDAEFKPVAEKLAASKKEVDDKIAAARKKVEAKVAALEKDAPRLRQADIQKRQQEINKLGAAEDAELQKLMQEQDKKVQEFQAQNEKRQAEERGKLLDSIQTATNNLAKAKGYTYVLDANSIVFAVEGKDITEEVLKSIPASEKAQEKK
notes: OMP26, 26-kDa outer membrane protein of Haemophilus influenzae, homolog of E. coli Skp; Gene bought from GenScript; Predominantly trimers by native MS and SEC, with hexamers in low abundance; also called His‐tagged OMP26; source: E. coli BL‐21*, IPTG induced; not shown: His6, N-terminal, kept
In the case of B2, the “stoichiometry N” value was 3 and 6.
